# Assay results: article PMC12630689 (Nature Communications, 2025)
# Target: the molecule itself
# Assay: cryo-EM structure
protein,measurement,value
"Shaker-IR-I384R (Shaker zH4 K+ channel with fast inactivation removed, Δ6-46, with the I384R mutation) (natural protein, UniProt P08510 1-655, looked up) MAAVALREQQLQRNSLDGYGSLPKLSSQDEEGGAGHGFGGGPQHFEPIPHDHDFCERVVINVSGLRFETQLRTLNQFPDTLLGDPARRLRYFDPLRNEYFFDRSRPSFDAILYYYQSGGRLRRPVNVPLDVFSEEIKFYELGDQAINKFREDEGFIKEEERPLPDNEKQRKVWLLFEYPESSQAARVVAIISVFVILLSIVIFCLETLPEFKHYKVFNTTTNGTKIEEDEVPDITDPFFLIETLCIIWFTFELTVRFLACPNKLNFCRDVMNVIDIIAIIPYFITLATVVAEEEDTLNLPKAPVSPQDKSSNQAMSLAILRVIRLVRVFRIFKLSRHSKGLQRLGRTLKASMRELGLLIFFLFIGVVLFSSAVYFAEAGSENSFFKSIPDAFWWAVVTMTTVGYGDMTPVGVWGKIVGSLCAIAGVLTIALPVPVIVSNFNYFYHRETDQEEMQSQNFNHVTSCPYLPGTLGQHMKKSSLSESSSDMMDLDDGVESTPGLTETHPGRSAVAPFLGAQQQQQQPVASSLSMSIDKQLQHPLQQLTQTQLYQQQQQQQQQQQNGFKQQQQQTQQQLQQQQSHTINASAAAATSGSGSSGLTMRHNNALAVSIETDV",stoichiometry N,4
